Data reported in the DeepSol protein solubility set.

Test: soluble on expression in E. coli; label from the status in PepcDB or PDB records

Sequence	soluble on expression in E. coli
MATRSCVSRGSAGSAAAGPVEAAIRAKLEQALSPEVLELRNESGGHAVPAGSETHFRVAVVSSRFEGMSPLQRHRLVHEALSEELAGPVHALAIQAKTPAQWRENPQLDISPPCLG	soluble
MATSGFKHLVVVKFKEDTKVDEILKGLENLVSQIDTVKSFEWGEDKESHDMLRQGFTHAFSMTFENKDGYVAFTSHPLHVEFSAAFTAVIDKIVLLDFPVAAVKSSVVATP	soluble
MATYNGQGFIHDQLDSIRNQTLRPDYVLMRDDGSTDDTVKVVEDYIKEHRLDGWSITSNDKNLGWRLNFRQLLIDVLAYEVDYVFFSDQDDTWYHHKNKMQVDIMEERQDINLLSADIDIKKLSEEATIPNNFKFNGEETISKYPLDFSYHNYRQGWTFCLRKSFVDQVMTFYSDNLILSHDNLFAGVSGVIGSGYNLNRSVGEHKRHAENASGNILNMSSSYERHLQELYFVLSYYIILVPFLEKSSSSQLREAKAYLDFNQQRYKNAQNKDFVAILKQMMTKKRFYDSFSNRIRDLVFLLKDIKRS	not soluble
MAVEVVMPKLGMAMKEGIITSWNIKAGDNVAKGELIASINSEKIETEIEAPADGTILDIAVSEDEGVPPGTVICYIGKPNEKVEVHESTKVEEELTASEVPQNVQHPEPLGKEVTNKQRIKISPVAKKIAKTENLDIRALLGTGPGGRITKVDVLKALEERVAIPEVLEESKVLPVTGMRKAIANRMHASLQNSAQLTLTMKVDVTDLVALHKEIAEVVQKRYDNKLTITDFVSRAVVLALGEHKEMNSAYIDDAIHQFEHVHLGMAVALEKGLVVPAIRFANNLSLVELSKEIKNAAQKARAGNLNSDDMQGTTFTISNLGSFGIEYFTPVLNTPETGILGVGAIEHVPVYKGKKLKKGSMLPLSLTFDHRVLDGAPAAAFLRTIKRYLEEPVTILL	not soluble
MAVGAALPPIPEGAPVLIAGPTASGKSALALEIAERFGGVIVNADASQVYDCWRAISARPSPEEEARAPHLLYGHLPYDAPYSAGHWLREVTPLLDGTARPIIVGGTGLYFTALTEGMADIPATPPDVRAEADTLPLDRLLAGIDPATAAGLDRNNRARVQRAWEVERATGRALHLWQADTPPPPLPLARTVPLVLEVDKLWLWDRIARRFDQMLDQGALDEVAAMAARYDPALPAFKAIGVPELMAHLRGEITLDAARERASIATRQYAKRQRSWFRARMGDWHRLPVGGLEHHHHHH	not soluble
MAVGTEESDFEGWAFPFPGVMLIEDFVTREEEAELVRLMDRDPWKLSQSGRRKQDYGPKVNFRKQKLKTEGFCGLPSFSREVVRRMGLYPGLEGFRPVEQCNLDYCPERGSAIDPHLDDAWLWGERLVSLNLLSPTVLSMCREAPGSLLLCSAPSAAPEALVDSVIAPSRSVLCQEVEVAIPLPARSLLVLTGAARHQWKHAIHRRHIEARRVCVTFRELSAEFGPGGRQQELGQELLRIALSFQGRPVLEHHHHHH	soluble
MAVHTDPFKKYLYKIGNRTSGSDKHIRKFKTFLTISAYSNILVISMIIDQLRIQKNIPDEEFDAIYPFEIRELSERHWTSVFVAKTAADFLCNQRPVKVLDIGSGAGKFCFVGAALHPSSQFHGIDIRENFIQLSNNLKEQYAVANVSFFQQDALEMDLTGYGGIYFFNSFQEKIDPTSVIDHNSKVSVEQYIQYTNHIFNELNKVPAGTKLVTYYSEDFCVPGSFRLLATHFNGELKFYLKEMEPDESDEQLNQQDISEHIDRHTFLSE	not soluble
MAVKGLGEVDQKYDGSKLRIGILHARWNRKIIDALVAGAVKRLQEFGVKEENIIIETVPGSFELPYGSKLFVEKQKRLGKPLDAIIPIGVLIKGSTMHFEYICDSTTHQLMKLNFELGIPVIFGVLTCLTDEQAEARAGLIEGKMHNHGEDWGAAAVEMATKFN	soluble
MAVKVAINGFGRIGRLAFRRIQEVEGLEVVAVNDLTDDDMLAHLLKYDTMQGRFTGEVEVVDGGFRVNGKEVKSFSEPDASKLPWKDLNIDVVLECTGFYTDKDKAQAHIEAGAKKVLISAPATGDLKTIVFNTNHQELDGSETVVSGASSTTNSLAPVAKVLNDDFGLVEGLMTTIHAYTGDQNTQDAPHRKGDKRRARAAAENIIPNSTGAAKAIGKVIPEIDGKLDGGAQRVPVATGSLTELTVVLEKQDVTVEQVNEAMKNASNESFGYTEDEIVSSDVVGMTYGSLFDATQTRVMSVGDRQLVKVAAWYDNEMSYTAQLVRTLAYLAELSK	soluble
MAVKVKKILISQPQPVAGRSPYYDIAQKHGCEVVFRPFIQVESVSAREFRNQKVNILDHSAIIFTARTAIDHFFSLCEELRVTVPETMKYFCVSESVAVYLQKHIVYRKRKIFFGATGKLEDLLTVISKHNKETYFVPLAEEHKHDLLDMLTAKKVSFSPAIMYRTVSNDFGPDEALDHDMILFFSPSGITALLKNFPKFEQGKTKIGAFGPTTAKAVEEAGLRLDLSAPTEQYPSMAMALEDYLNGK	not soluble
MAVLGRKSDRAVFDDGPVPRYEAVKQFIRSRIESGEWPPHHRVPSENDIVADLGVSRMTANRALRELASEGAITRVQGVGSFVAAHKGSTALLEVRNIADEIRERGHRHTSRITLLEEEQASTEVAEALGLAAKARVFHSIIVHAEDDVPIQIEDRFVNPAICPNYLEQDFTSMTPNVYLTLVAPITRTEQIVEAVLPKPWECKLLSIGRGEPCLMIRRRTWSEAANVTVAWLTYPGTRYRLEGVSQ	not soluble
MAVLSFSFGGEITLKKPPESLKKYYPPASEKFEFLNNMHTMSTAFYAVQLNINDENWEKAKEWAQKLVKTYRETAEMVPEWKDYFDFSKADAYLNAVSSKNVDAVIKTARELGQTCAKCHRDNEVAVKIYYHFPDFHSVKVEDPIEFMEMDLGDFMKKLANSLKATNIYISQGEYEKAKEHGINFVERARAVKETCTKCHTKEAEVEAITGKEYDQALKALENLFNAEKLDTQKVAQNMKKVTVTCYTCHNVHLIPAKIKEALAK	not soluble
MAVNGKTLIRRFNDYCPEWLAETGDPVGLHIGTLDKPIENVMVTLDVRPEVVAEAIEKQVDLIIAKHPPIFRPVKRLTTDNFQEKMYADLLKHDIAVYAAHTNMDIIDNGLNDWFCELLGIKQTTFLTKTHTVPYKKLAVFVPIDEAPQMREALGLAGAGSQGDYSKTSYSLIGTGRFTPTQGANPTIGEIGQESVVQEAKIEVIFPETKQEQVLAAMLQAHPYEEPAYDVYTIENQSKEFGLGRVGVLDKPVRFSYFVQQVKEAFQLDGLRVIAKDDTKMIQRVAICGGSGEKFYHDALRKQADVYITGDVYYHTAHDMIAEDLPVIDPGHYIEALCKPKLVELMNQWKQENEWAVSIFESEANTNPFRFK	not soluble
MAVSQGVSLKEDLKDLVRKAEEIGRELSGKLKTNQLRKFHGHLTKIWSNYIYKKKDYRDNPEKFNEEILNELHFMKIFLAYQVGRDIEGISELKEILEPLIDEIKTPDEFEKFKKFYDAILAYHKFHSESEKSNRRTARR	not soluble
MAVTGQVKWFNNEKGFGFIEVPGENDVFVHFSAIETDGFKSLEEGQKVSFEIEEGNRGPQAKNVIKL	not soluble
MAVTQTRDAVIIGGGHNGLVCAFYLAKAGLKVTVCEARGVVGGAAVTEEFHPGFRNSVASYTVSLLNPRVIADMGLRELGLTFLERPISNFLPISDDKYIKLGGGLERTQEEFRKYSRRDAEVLPAYYAMLDEIGDILRDLAQETPPNLGDGLPGLLRALRQGGRLAFLSRQRKRDLLDLFTKSARDVLDGWFESEPVKAAFGFDAVVGNFASPDTPGSAYVLLHHTFGEVNGKKGAWGHAVGGMGAITQAMAKACEAAGVEILLDAPVEAVHIDGGKAAGVQLVDGRQIMAPIVSANVNPALLYKKLVPPSALTPDFRKAVDGYKNGSGTFRMNVALSELPSFTCLPGKETAEHHQSGIVIAPSLDYMDAAYRDAKGQGISKAPIVEMLIPSSLDTSLAPPGQHVASLFCQQFAPELPDGRSWDDAREAAADLIIDTVDQWAPGFKASVLGRMILSPLDLERKFGLIGGDIMHGHMSLDQLWATRPLLGHASHRAPIAGLYMCGAGTHPGGGVSGNPGRNAAREILRDKDFATAVKLSVVGRLEHHHHHH	not soluble
MAWVVNKQSTQEELANRFRALVEANEILQIPGAHDAMAALVARNTGFLALYLSGAAYTASKGLPDLGIVTSTEVAERARDLVRATDLPVLVDIDTGFGGVLNVARTAVEMVEAKVAAVQIEDQQLPKKCGHLNGKKLVTTEELVQKIKAIKEVAPSLYIVARTDARGVEGLDEAIERANAYVKAGADAIFPEALQSEEEFRLFNSKVNAPLLANMTEFGKTPYYSAEEFANMGFQMVIYPVTSLRVAAKAYENVFTLIKETGSQKDALSNMQTRSELYETISYHDFEELDTGIAKTVLSEDQ	not soluble
MAYHADSADLETKEILTWEGFGIANRELAQQIVDSNYTPDIIVAVARGGLVPAGALSYSMGIKLSDAINVEFYTDVNETLPDPVLLEPLLDTNSIRGKKVLVVDDVADSGRTLDLVLKLLENHGAEVRSAVIYAKSRSIVAPNYIWKRTDEWIVFPWSAEPPVTKA	not soluble
MAYIQLEPLNEGFLSRISGLLLCRWTCRHCCQKCYESSCCQSSEDEVEILGPFPAQTPPWLMASRSSDKDGDSVHTASEVPLTPRTNSPDGRRSSSDTSKSTYSLTRRISSLESRRPSSPLIDIKPIEFGVLSAKKEPIQPSVLRRTYNPDDYFRKFEPHLYSLDSNSDDVDSLTDEEILSKYQLGMLHFSTQYDLLHNHLTVRVIEARDLPPPISHDGSRQDMAHSNPYVKICLLPDQKNSKQTGVKRKTQKPVFEERYTFEIPFLEAQRRTLLLTVVDFDKFSRHCVIGKVSVPLCEVDLVKGGHWWKALIPSSQNEVELGELLLSLNYLPSAGRLNVDVIRAKQLLQTDVSQGSDPFVKIQLVHGLKLVKTKKTSFLRGTIDPFYNESFSFKVPQEELENASLVFTVFGHNMKSSNDFIGRIVIGQYSSGPSETNHWRRMLNTHRTAVEQWHSLRSRAECDRVSPASLEVT	soluble
MAYTIGVDFGTLSGRAVLVHVQTGEELAAAVKEYRHAVIDTVLPKTGQKLPRDWALQHPADYLEVLETTIPSLLEQTGVDPKDIIGIGIDFTACTILPIDSSGQPLCMLPEYEEEPHSYVKLWKHHAAQKHADRLNQIAEEEGEAFLQRYGGKISSEWMIPKVMQIAEEAPHIYEAADRIIEAADWIVYQLCGSLKRSNCTAGYKAMWSEKAGYPSDDFFEKLNPSMKTITKDKLSGSIHSVGEKAGSLTEKMAKLTGLLPGTAVAVANVDAHVSVPAVGITEPGKMLMIMGTSTCHVLLGEEVHIVPGMCGVVDNGILPGYAGYEAGQSCVGDHFDWFVKTCVPPAYQEEAKEKNIGVHELLSEKANHQAPGESGLLALDWWNGNRSTLVDADLTGMLLGMTLLTKPEEIYRALVEATAYGTRMIIETFKESGVPIEELFAAGGIAEKNPFVMQIYADVTNMDIKISGSPQAPALGSAIFGALAAGKEKGGYDDIKKAAANMGKLKDITYTPNAENAAVYEKLYAEYKELVHYFGKENHVMKRLKTIKNLQFSSAAKK	soluble
MAYVTWLLAILHVHKDSFEIAAPSDSYLSAEPGQDVTLTCQLPRTWPVQQVIWEKVQPHQVDILASCNLSQETRYTSKYLRQTRSNCSQGSMKSILIIPNAMAADSGLYRCRSEAITGKNKSFVIRLIITDGE	not soluble
MCGRFAQAQTREEYLAYLADEADRNIAYDPQPIGRYNVAPGTKVLLLSERDEQLHLDPVIWGYAPGWWDKAPLINARVATAASSRMFKPLWQHGRAICFADRWFEWKKEGDKKQPYFIHRKDGKPIFMAAIGSTPFERGDEAEGFLIVTSAADKGLVDIHDRRPLALTPETARVWMRQFLEPHSKSITYRVIPALTRPMMRKDTNPCQLEHHHHHH	not soluble
